Reference: FireProtDB (doi:10.1021/bi00815a015)
Values joined by “and” are separate entries in the source; they are usually repeats but may differ in a detail not shown here. Identical values can stand only once.

Conditions: Aspergillus oryzae (strain ATCC 42149 / RIB 40), Thermal, DSC, whole UniProt chain shown
[1] = pH 0.36, glycine 0.2 N, HCl, reversible: yes
[2] = pH 1.05, HCl, NaCl 0.2 N, reversible: yes
[3] = pH 2.02, glycine 0.2 N, reversible: yes
[4] = pH 2.8, glycine 0.2 N, reversible: yes
[5] = pH 3.28, glycine 0.2 N, reversible: yes
[6] = pH 4.04, acetate 0.2 N, reversible: no
[7] = pH 5, acetate 0.2 N, reversible: no
[8] = pH 6.23, acetate 0.2 N, reversible: no
[9] = pH 7, None, NaCl 0.2 N, reversible: no
[10] = pH 7.8, None, NaCl 0.2 N, reversible: no

B1: Guanyl-specific ribonuclease T1 wild type, P00651 (protein)
chain: MMYSKLLTLTTLLLPTALALPSLVERACDYTCGSNCYSSSDVSTAQAAGYQLHEDGETVGSNSYPHKYNNYEGFDFSVSSPYYEWPILSSGDVYSGGSPGADRVVFNENNQLAGVITHTGASGNNFVECT
pH 0.36, HCl, reversible: yes
  Tm: 25 °C
  unfolding enthalpy (calorimetric): 48.7 kcal/mol
[1]
  Tm: 31.5 °C
  heat capacity change of unfolding: 1.9 kcal/mol/K
  unfolding enthalpy (calorimetric): 61.2 kcal/mol
  unfolding enthalpy (van 't Hoff): 62 kcal/mol
[2]
  Tm: 25 °C
  unfolding enthalpy (calorimetric): 49.1 kcal/mol
[3]
  Tm: 31.2 °C
  heat capacity change of unfolding: 1.98 kcal/mol/K
  unfolding enthalpy (calorimetric): 65.6 kcal/mol
  unfolding enthalpy (van 't Hoff): 67 kcal/mol
[4]
  heat capacity change of unfolding: 2.11 kcal/mol/K
  unfolding enthalpy (calorimetric): 87.7 kcal/mol and 54.8 kcal/mol
  unfolding enthalpy (van 't Hoff): 68 kcal/mol
[5]
  Tm: 25 °C
  unfolding enthalpy (calorimetric): 63.4 kcal/mol
[6]
  heat capacity change of unfolding: 2.08 kcal/mol/K
  unfolding enthalpy (calorimetric): 126 kcal/mol and 69.2 kcal/mol
  unfolding enthalpy (van 't Hoff): 64 kcal/mol
[7]
  heat capacity change of unfolding: 2.25 kcal/mol/K
  unfolding enthalpy (calorimetric): 151 kcal/mol and 77.2 kcal/mol
  unfolding enthalpy (van 't Hoff): 60 kcal/mol
[8]
  heat capacity change of unfolding: 2.05 kcal/mol/K
  unfolding enthalpy (calorimetric): 156 kcal/mol and 81.2 kcal/mol
  unfolding enthalpy (van 't Hoff): 66 kcal/mol
[9]
  heat capacity change of unfolding: 2.07 kcal/mol/K
  unfolding enthalpy (calorimetric): 168 kcal/mol and 92.9 kcal/mol
  unfolding enthalpy (van 't Hoff): 88 kcal/mol
[10]
  heat capacity change of unfolding: 2 kcal/mol/K
  unfolding enthalpy (calorimetric): 178 kcal/mol and 106 kcal/mol
  unfolding enthalpy (van 't Hoff): 72 kcal/mol
